Test [1] concerns the target T1, bacteriorhodopsin from Halobacterium salinarum (Halobacterium salinarum), P02945.
T1 chain: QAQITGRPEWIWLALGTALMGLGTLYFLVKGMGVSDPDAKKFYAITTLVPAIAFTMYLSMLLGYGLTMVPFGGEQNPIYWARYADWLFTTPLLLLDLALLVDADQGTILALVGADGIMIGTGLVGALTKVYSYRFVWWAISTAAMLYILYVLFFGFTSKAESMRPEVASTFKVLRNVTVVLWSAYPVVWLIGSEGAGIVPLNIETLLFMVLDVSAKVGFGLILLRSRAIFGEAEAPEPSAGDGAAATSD
The test can be described thus: atomic force microscopy (AFM) imaging; purple membrane on KOH-treated glass (20 mM Tris pH ~8.5, 200 mM KCl, 20 mM MgCl2) and on mica (10 mM Tris pH ~7.6, 150 mM KCl); tapping mode, ~30 °C; correlation averaging. As to conditions: remark: other sources report otherwise.

In another test the target is T2, ATPase SecA (E. coli, UniProt P10408 1-901).
T2 construct: SecA, ATPase of the general secretory system of E. coli; SecA was added for coassembly 'at 5 μM dimer'; Zinc is kept in SecA by the purification; also called peripheral membrane protein SecA; source: purified from the supernatant of lysed cells (QAE column)
The test can be described thus: atomic force microscopy (AFM) imaging; proteoliposomes of coassembled SecYEG and SecA deposited on KOH-treated glass (height histograms also on mica); tapping mode, ~30 °C, 10 mM HEPES pH 8.0, 200 mM KAc, 5 mM MgAc2; single translocons tracked for >1800 s. The following applies: both partners purified.

T2 sequence (P10408 whole entry): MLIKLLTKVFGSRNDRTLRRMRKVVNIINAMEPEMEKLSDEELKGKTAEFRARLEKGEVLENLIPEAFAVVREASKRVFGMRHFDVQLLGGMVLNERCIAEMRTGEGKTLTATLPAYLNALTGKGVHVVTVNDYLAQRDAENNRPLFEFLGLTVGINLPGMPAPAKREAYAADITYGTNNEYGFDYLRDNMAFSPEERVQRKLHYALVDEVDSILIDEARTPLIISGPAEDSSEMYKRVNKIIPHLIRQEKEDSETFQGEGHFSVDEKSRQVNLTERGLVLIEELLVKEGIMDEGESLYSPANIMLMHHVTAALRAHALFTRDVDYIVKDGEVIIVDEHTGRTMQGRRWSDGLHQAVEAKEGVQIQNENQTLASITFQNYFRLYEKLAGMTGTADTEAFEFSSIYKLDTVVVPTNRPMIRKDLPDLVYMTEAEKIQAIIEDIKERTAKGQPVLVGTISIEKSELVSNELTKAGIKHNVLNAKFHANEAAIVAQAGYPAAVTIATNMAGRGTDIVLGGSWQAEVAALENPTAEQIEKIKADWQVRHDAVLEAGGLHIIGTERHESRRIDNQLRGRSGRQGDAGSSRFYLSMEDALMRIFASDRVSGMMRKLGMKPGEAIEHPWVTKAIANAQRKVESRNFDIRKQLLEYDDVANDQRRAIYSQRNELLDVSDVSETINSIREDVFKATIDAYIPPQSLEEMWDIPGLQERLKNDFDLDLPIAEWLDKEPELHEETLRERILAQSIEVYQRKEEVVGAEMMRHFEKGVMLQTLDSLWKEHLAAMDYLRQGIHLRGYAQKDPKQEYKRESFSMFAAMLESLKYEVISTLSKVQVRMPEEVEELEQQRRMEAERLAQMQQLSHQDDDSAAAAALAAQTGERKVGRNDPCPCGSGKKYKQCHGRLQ

B1: bacteriorhodopsin from Halobacterium salinarum, P02945 14-262 (natural protein)
chain: T1 chain
modifications: here or on the partner: retinal chromophore; retinal chromophore
The term stoichiometry N denotes a count of units in the complex or per binding partner. Turning to B1, the stoichiometry N in test [1] came out at 3.

B2: SecYEG translocon from Escherichia coli (complex, E. coli)
chain 1: MAKQPGLDFQSAKGGLGELKRRLLFVIGALIVFRIGSFIPIPGIDAAVLAKLLEQQRGTIIEMFNMFSGGALSRASIFALGIMPYISASIIIQLLTVVHPTLAEIKKEGESGRRKISQYTRYGTLVLAIFQSIGIATGLPNMPGMQGLVINPGFAFYFTAVVSLVTGTMFLMWLGEQITERGIGNGISIIIFAGIVAGLPPAIAHTIEQARQGDLHFLVLLLVAVLVFAVTFFVVFVERGQRRIVVNYAKRQQGRRVYAAQSTHLPLKVNMAGVIPAIFASSIILFPATIASWFGGGTGWNWLTTISLYLQPGQPLYVLLYASAIIFFSFFYTALVFNPRETADNLKKSGAFVPGIRPGEQTAKYIDKVMTRLTLVGALYITFISLIPEFMRDAMKVPFYFGGTSLLIVVVVIMDFMAQVQTLMMSSQYESALKKANLKGYGR
chain 2: MSANTEAQGSGRGLEAMKWVVVVALLLVAIVGNYLYRDIMLPLRALAVVILIAAAGGVALLTTKGKATVAFAREARTEVRKVIWPTRQETLHTTLIVAAVTAVMSLILWGLDGILVRLVSFITGLRF
chain 3: MYEALLVVFLIVAIGLVGLIMLQQGKGADMGASFGAGASATLFGSSGSGNFMTRMTALLATLFFIISLVLGNINSNKTNKGSEWENLSAPAKTEQTQPAAPAKPTSDIPN
notes: SecY of the E. coli translocon SecYEG, with C329S and C385S; SecE of the E. coli translocon SecYEG; SecG of the E. coli translocon SecYEG; In the assay the complex stood in a lipid bilayer supported by glass (or mica); also called bacterial translocon; copies: + +
As for B2, in the test with ATPase SecA, the binding result was “binds”.

The record behind these values is article PMC4521160, “Glass is a Viable Substrate for Precision Force Microscopy of Membrane Proteins” (Scientific Reports, 2015).
